Laboratory results from patent publication US20230407373A1 (priority 2020, published 2023).

Tests used:
Type in all cases: binding
SARS-CoV-2 gRNA = conditions: for target (unweighted spectral count of the protein in the RNP capture): LC-MS/MS, Probe I sample (first 199 lines of Table 2)
[1] = tested on: SARS-CoV-2 gRNA and sgRNAs; conditions: for background (unweighted spectral count in control): no-probe control pull-down, used as background for Probe II; for target (unweighted spectral count in RNP capture): Probe II capture, LC-MS/MS LFQ
HCoV-OC43 gRNA and sgRNA = tested on: HCoV-OC43 gRNA and sgRNA

Molecule	target (unweighted spectral count of the protein in the RNP capture) (SARS-CoV-2 gRNA; […])	background (unweighted spectral count in control) [1]	target (unweighted spectral count, OC43 Probe II capture) (HCoV-OC43 gRNA and sgRNA; 24 hpi, type n_24_v, tested against no-probe control, FDR<10%)	target (unweighted spectral count, OC43 Probe II) (HCoV-OC43 gRNA and sgRNA; type n_48_v, 48 hpi, OC43 Probe II capture on infected cells)	background (unweighted spectral count, no-probe control) (HCoV-OC43 gRNA and sgRNA; type n_48_v, 48 hpi, no-probe control on infected cells)	target (unweighted spectral count in RNP capture) ([1]; […])	target (unweighted spectral count in RNP capture) (SARS-CoV-2 gRNA; Probe I capture, […], LC-MS/MS LFQ)	background (unweighted spectral count in control) (SARS-CoV-2 gRNA; no-probe control pull-down, used as background for Probe I)	target (unweighted spectral count of the protein in the RNP capture experiment) ([1]; […], LC-MS/MS label-free quantification, probe pool not given)	back-ground (unweighted spectral count of the protein in the control experiment) ([1]; protein background of the control (e.g. no-probe) experiment, […])
MYEF2 (protein, UniProt Q9P2K5 1-600, looked up) Myelin expression factor 2: MADANKAEVPGATGGDSPHLQPAEPPGEPRREPHPAEAEKQQPQHSSSSNGVKMENDESAKEEKSDLKEKSTGSKKANRFHPYSKDKNSGAGEKKGPNRNRVFISNIPYDMKWQAIKDLMREKVGEVTYVELFKDAEGKSRGCGVVEFKDEEFVKKALETMNKYDLSGRPLNIKEDPDGENARRALQRTGGSFPGGHVPDMGSGLMNLPPSILNNPNIPPEVISNLQAGRLGSTIFVANLDFKVGWKKLKEVFSIAGTVKRADIKEDKDGKSRGMGTVTFEQAIEAVQAISMFNGQFLFDRPMHVKMDDKSVPHEEYRSHDGKTPQLPRGLGGIGMGLGPGGQPISASQLNIGGVMGNLGPGGMGMDGPGFGGMNRIGGGIGFGGLEAMNSMGGFGGVGRMGELYRGAMTSSMERDFGRGDIGINQGFGDSFGRLGSAMIGGFAGRIGSSNMGPVGSGISGGMGSMNSVTGGMGMGLDRMSSSFDRMGPGIGAILERSIDMDRGFLSGPMGSGMRERIGSKGNQIFVRNLPFDLTWQKLKEKFSQCGHVMFAEIKMENGKSKGCGTVRFDSPESAEKACRIMNGIKISGREIDVRLDRNA	19	1								
PABPN1 (protein, UniProt Q86U42 2-306, looked up) Polyadenylate-binding protein …: AAAAAAAAAAGAAGGRGSGPGRRRHLVPGAGGEAGEGAPGGAGDYGNGLESEELEPEELLLEPEPEPEPEEEPPRPRAPPGAPGPGPGSGAPGSQEEEEEPGLVEGDPGDGAIEDPELEAIKARVREMEEEAEKLKELQNEVEKQMNMSPPPGNAGPVIMSIEEKMEADARSIYVGNVDYGATAEELEAHFHGCGSVNRVTILCDKFSGHPKGFAYIEFSDKESVRTSLALDESLFRGRQIKVIPKRTNRPGISTTDRGFPRARYRARTTNYNSSRSRFYSGFNSRPRGRVYRGRARATSWYSPY	12	1	5	8	2	11				
PGK2 (protein, UniProt P07205 2-417, looked up) Phosphoglycerate kinase 2: SLSKKLTLDKLDVRGKRVIMRVDFNVPMKKNQITNNQRIKASIPSIKYCLDNGAKAVVLMSHLGRPDGVPMPDKYSLAPVAVELKSLLGKDVLFLKDCVGAEVEKACANPAPGSVILLENLRFHVEEEGKGQDPSGKKIKAEPDKIEAFRASLSKLGDVYVNDAFGTAHRAHSSMVGVNLPHKASGFLMKKELDYFAKALENPVRPFLAILGGAKVADKIQLIKNMLDKVNEMIIGGGMAYTFLKVLNNMEIGASLFDEEGAKIVKDIMAKAQKNGVRITFPVDFVTGDKFDENAQVGKATVASGISPGWMGLDCGPESNKNHAQVVAQARLIVWNGPLGVFEWDAFAKGTKALMDEIVKATSKGCITVIGGGDTATCCAKWNTEDKVSHVSTGGGASLELLEGKILPGVEALSNM							5	1	5	1
PPP1CB (protein, UniProt P62140 2-327, looked up) Serine/threonine-protein …: ADGELNVDSLITRLLEVRGCRPGKIVQMTEAEVRGLCIKSREIFLSQPILLELEAPLKICGDIHGQYTDLLRLFEYGGFPPEANYLFLGDYVDRGKQSLETICLLLAYKIKYPENFFLLRGNHECASINRIYGFYDECKRRFNIKLWKTFTDCFNCLPIAAIVDEKIFCCHGGLSPDLQSMEQIRRIMRPTDVPDTGLLCDLLWSDPDKDVQGWGENDRGVSFTFGADVVSKFLNRHDLDLICRAHQVVEDGYEFFAKRQLVTLFSAPNYCGEFDNAGGMMSVDETLMCSFQILKPSEKKAKYQYGGLNSGRPVTPPRTANPPKKR	17	4				24				
TRA2A (protein, UniProt Q13595 2-282, looked up) Transformer-2 protein homolog …: SDVEENNFEGRESRSQSKSPTGTPARVKSESRSGSRSPSRVSKHSESHSRSRSKSRSRSRRHSHRRYTRSRSHSHSHRRRSRSRSYTPEYRRRRSRSHSPMSNRRRHTGSRANPDPNTCLGVFGLSLYTTERDLREVFSRYGPLSGVNVVYDQRTGRSRGFAFVYFERIDDSKEAMERANGMELDGRRIRVDYSITKRAHTPTPGIYMGRPTHSGGGGGGGGGGGGGGGGRRRDSYYDRGYDRGYDRYEDYDYRYRRRSPSPYYSRYRSRSRSRSYSPRRY	6	1				7				
HNRNPA1L2 (protein, UniProt Q32P51 1-320, looked up) Heterogeneous nuclear …: MSKSASPKEPEQLRKLFIGGLSFETTDESLRSHFEQWGTLTDCVVMRDPNTKRSRGFGFVTYATVEEVDAAMNTTPHKVDGRVVEPKRAVSREDSQRPGAHLTVKKIFVGGIKEDTEEHHLRDYFEQYGKIEVIEIMTDRGSGKKRGFAFVTFDDHDSVDKIVIQKYHTVKGHNCEVRKALPKQEMASASSSQRGRRGSGNFGGGRGDGFGGNDNFGRGGNFSGRGGFGGSCGGGGYGGSGDGYNGFGNDGSNFGGGGSYNDFGNYNNQSSNFGPMKGGNFGGRSSGPYGGGGQYFAKPQNQGGYGVSSSSSSYGSGRRF	6	1				8				
